How the values were obtained:
[1] = target: human LSR α′ subunit expressed in CHO-K1 cells (human) (UniProt Q86X29); test: cell-based or functional assay
[2] = target: endogenous human LSR of PLC hepatoma cells (human) (UniProt Q86X29); test: cell-based or functional assay
[3] = target: human LSR α′ subunit expressed in CHO-K1 cells (human) (UniProt Q86X29); test: cell-associated ^125I-leptin on CHO-K1 cells stably expressing LSR α′, 37° C., 2 h; Lineweaver-Burk transformation (FIG. 3C, inset)

Sequence of endogenous human LSR of PLC hepatoma cells (human) (Q86X29 whole entry): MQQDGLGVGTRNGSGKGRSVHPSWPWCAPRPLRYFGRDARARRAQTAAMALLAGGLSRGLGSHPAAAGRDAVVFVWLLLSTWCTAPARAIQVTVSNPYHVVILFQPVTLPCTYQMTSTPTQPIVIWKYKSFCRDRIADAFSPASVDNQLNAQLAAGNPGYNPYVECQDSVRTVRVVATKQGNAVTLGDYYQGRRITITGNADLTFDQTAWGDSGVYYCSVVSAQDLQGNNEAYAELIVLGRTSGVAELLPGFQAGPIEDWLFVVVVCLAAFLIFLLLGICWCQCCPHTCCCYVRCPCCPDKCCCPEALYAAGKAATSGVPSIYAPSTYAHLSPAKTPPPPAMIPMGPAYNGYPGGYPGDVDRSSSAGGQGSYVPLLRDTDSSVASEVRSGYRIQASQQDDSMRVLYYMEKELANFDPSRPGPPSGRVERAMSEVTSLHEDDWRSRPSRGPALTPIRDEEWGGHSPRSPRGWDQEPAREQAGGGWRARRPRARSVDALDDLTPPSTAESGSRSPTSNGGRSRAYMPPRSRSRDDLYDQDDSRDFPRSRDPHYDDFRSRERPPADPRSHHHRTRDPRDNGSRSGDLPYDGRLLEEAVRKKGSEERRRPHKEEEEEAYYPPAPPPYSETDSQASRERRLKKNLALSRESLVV
Sequence of human LSR α′ subunit expressed in CHO-K1 cells (human) (Q86X29 whole entry): as above

Row | ^125I-leptin degraded relative to that bound and internalized [1] [%] | ^125I-leptin degradation by PLC cells (TCA-soluble chloroform-insoluble products) [2] [ng/mL] | Kd [3] [nM] | acute leptin stimulation of oleate-induced ^125I-LDL binding in PLC cells preincubated 24 h with 200 ng/mL leptin: leptin concentration giving the maximal effect [2] [ng/mL] | acute leptin stimulation of oleate-induced ^125I-LDL binding in PLC cells preincubated 24 h with 200 ng/mL leptin: reduction of the maximal effect [2] [%] | oleate-induced LSR binding uptake and degradation of ^125I-LDL in PLC cells [2] [ng/mL] | Substance
1 | 16 | > 10 | 1.3 |  |  |  | ^125I-leptin (species not stated) (ligand)
2 |  |  |  | 100 | 50 | > 10 | recombinant human leptin (from UniProt P41159 22-167) (ligand)
